This is an account of results in patent publication US20210002376A1 (UNIVERSIT T STUTTGART, published 2021).

One experiment has as its target T1, HER3-Fc fusion protein (UniProt P21860 21-643).
T1 construct: range 21-643; Coated antigen in ELISA; not shown: Fc part of the fusion, not described
The experiment in a line: ELISA, coated HER3-Fc, anti-human Fab-HRP. On the technique in general: An ELISA detects its analyte on a solid surface through an enzyme-linked reagent.

A further experiment deals with T2, EGFR-Fc fusion protein (UniProt P00533 25-645).
T2 construct: range 25-645; Coated antigen in ELISA; not shown: Fc part of the fusion, not described
Description: ELISA, coated EGFR-Fc, anti-human Fab-HRP.

In another experiment the target is T3, HER3-His (UniProt P21860 21-643).
T3 construct: range 21-643; also called His-tagged HER3; second antigen
The experiment in a line: simultaneous binding ELISA: coated EGFR-Fc, Db titrated, HER3-His 300 nM added, anti-His-HRP.

The next experiment addresses T4, HER3 (on tumor cells) (UniProt P21860 20-1342, limits assumed).
T4 construct: whole, on cells; also called HER3 on MCF-7, SKBR-3 (SKBR3) and FaDu cells
The experiment in a line: flow cytometry on HER3-positive MCF-7 cells. Background: A flow cytometer gives signals particle by particle.

A further experiment addresses T5, TNFR2 (on Kym-1 cells) (UniProt P20333 23-461, limits assumed).
T5 sequence (looked up): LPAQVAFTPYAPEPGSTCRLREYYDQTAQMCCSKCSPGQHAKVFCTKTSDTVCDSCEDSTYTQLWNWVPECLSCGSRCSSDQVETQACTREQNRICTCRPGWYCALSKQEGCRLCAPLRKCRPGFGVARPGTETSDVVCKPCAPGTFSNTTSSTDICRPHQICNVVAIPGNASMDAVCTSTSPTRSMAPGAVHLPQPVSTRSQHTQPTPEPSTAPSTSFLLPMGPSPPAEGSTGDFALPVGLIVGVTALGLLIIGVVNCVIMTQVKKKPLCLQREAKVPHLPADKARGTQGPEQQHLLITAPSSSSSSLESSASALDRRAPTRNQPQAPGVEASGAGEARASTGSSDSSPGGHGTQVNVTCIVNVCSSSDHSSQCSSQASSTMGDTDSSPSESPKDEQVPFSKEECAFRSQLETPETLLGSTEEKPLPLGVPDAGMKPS
Description: cell-based or functional assay.

In a further experiment the target is T6, TNFR1-Fc fusion protein (UniProt P19438 29-197).
T6 construct: range 29-197; Coated antigen in ELISA; not shown: Fc part of the fusion, not described
T6 sequence (looked up): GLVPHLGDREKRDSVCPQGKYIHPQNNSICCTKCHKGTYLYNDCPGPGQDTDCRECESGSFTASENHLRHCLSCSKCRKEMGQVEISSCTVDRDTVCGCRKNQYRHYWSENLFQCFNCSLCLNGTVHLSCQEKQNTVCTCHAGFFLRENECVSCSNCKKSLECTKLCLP
The experiment in a line: ELISA, coated TNFR1-Fc, anti-human Fab-HRP.

For experiment [1], the target named is T7, TNFR2-Fc (Enbrel) fusion protein (UniProt P20333 23-257).
T7 construct: extracellular domain; Commercial product (Enbrel) used as coated antigen
T7 sequence (looked up): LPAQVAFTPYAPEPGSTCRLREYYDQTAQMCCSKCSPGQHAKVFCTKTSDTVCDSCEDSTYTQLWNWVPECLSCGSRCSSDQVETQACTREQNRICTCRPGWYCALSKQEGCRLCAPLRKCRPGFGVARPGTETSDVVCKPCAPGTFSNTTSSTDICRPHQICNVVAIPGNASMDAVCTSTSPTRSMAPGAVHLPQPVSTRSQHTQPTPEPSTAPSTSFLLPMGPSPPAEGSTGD
Description: ELISA, coated TNFR2-Fc (Enbrel), anti-human Fab-HRP.

B1: Db3M6xhu225-Ig (bispecific antibody, human IgG1, kappa)
heavy: EVQLVESGGGLVQPGGSLRLSCAASGFSLTNYGVHWVRQAPGKGLEWLGVIWSGGNTDYNTPFTSRFTISRDNSKNTLYLQMNSLRAEDTAVYYCARALTYYDYEFAYWGQGTTVTVSSGGGGSQSALTQPASVSGSPGQSITISCTGTSSDVGSYNVVSWYQQHPGKAPKLIIYEVSQRPSGVSNRFSGSKSGNTASLTISGLQTEDEADYYCSSYAGSSIFVIFGGGTKVTVLASTKGPSVFPLAPSSKSTSGGTAALGCLVKDYFPEPVTVSWNSGALTSGVHTFPAVLQSSGLYSLSSVVTVPSSSLGTQTYICNVNHKPSNTKVDKKVEPKSCDKTHTCPPCPAPPVAGPSVFLFPPKPKDTLMISRTPEVTCVVVDVSHEDPEVKFNWYVDGVEVHNAKTKPREEQYNSTYRVVSVLTVLHQDWLNGKEYKCKVSNKGLPSSIEKTISKAKGQPREPQVYTLPPSRDELTKNQVSLTCLVKGFYPSDIAVEWESNGQPENNYKTTPPVLDSDGSFFLYSKLTVDKSRWQQGNVFSCSVMHEALHNHYTQKSLSLSPGK
light: EVQLLESGGGLVQPGGSLRLSCAASGFTFSHYVMAWVRQAPGKGLEWVSSISSSGGWTLYADSVKGRFTISRDNSKNTLYLQMNSLRAEDTAVYYCTRGLKMATIFDYWGQGTLVTVSSGGGGSDIQLTQSPSFLSASVGDRVTITCRASQSIGTNIHWYQQKPGKAPKLLIKYASESISGVPSRFSGSGSGTEFTLTISSLQPEDFATYYCQQNNNWPTTFGAGTKLEIKRTVAAPSVFIFPPSDEQLKSGTASVVCLLNNFYPREAKVQWKVDNALQSGNSQESVTEQDSKDSTYSLSSTLTLSKADYEKHKVYACEVTHQGLSSPVTKSFNRGEC
notes: also called bispecific, tetravalent Diabody-Ig targeting EGFR (hu225) and HER3 (3M6); DbEGFRxHER3-Ig
One may read the EC50 as the midpoint of the concentration-response curve. Lower therefore signals a more potent agent. Take B1: the EC50 in the experiment with HER3-Fc fusion protein was found to be 1.4 nM; in the experiment with EGFR-Fc fusion protein, 0.48 nM; with HER3-His, 1.3 nM; in the experiment with HER3 (on tumor cells), 1.54 nM.

B2: DbTNFR2xTNFR2-Ig (antibody, human IgG1, kappa)
heavy: QVQLQQSGAEVKKPGSAVKVSCKASGGTFSSYAISWVRQAPGQGLEWMGRIIPILGIANYAQKFQGRVTITADKSTSTAYMELSSLRSEDTAVYYCARDGLGDAFDIWGQGTMVTVSSGGGGSQSALTQPRSVSGSPGQSITISCTGTSSDVGGYNYVSWYQQHPGKAPKLMIYDVSNRPSGVSNRFSGSKSGNTASLTISGLQAEDEADYYCSSYTSSSTLVVFGGGTKLTVLASTKGPSVFPLAPSSKSTSGGTAALGCLVKDYFPEPVTVSWNSGALTSGVHTFPAVLQSSGLYSLSSVVTVPSSSLGTQTYICNVNHKPSNTKVDKKVEPKSCDKTHTCPPCPAPPVAGPSVFLFPPKPKDTLMISRTPEVTCVVVDVSHEDPEVKFNWYVDGVEVHNAKTKPREEQYNSTYRVVSVLTVLHQDWLNGKEYKCKVSNKGLPSSIEKTISKAKGQPREPQVYTLPPSRDELTKNQVSLTCLVKGFYPSDIAVEWESNGQPENNYKTTPPVLDSDGSFFLYSKLTVDKSRWQQGNVFSCSVMHEALHNHYTQKSLSLSPGK
light: QVQLQQSGAEVKKPGSAVKVSCKASGGTFSSYAISWVRQAPGQGLEWMGRIIPILGIANYAQKFQGRVTITADKSTSTAYMELSSLRSEDTAVYYCARDGLGDAFDIWGQGTMVTVSSGGGGSQSALTQPRSVSGSPGQSITISCTGTSSDVGGYNYVSWYQQHPGKAPKLMIYDVSNRPSGVSNRFSGSKSGNTASLTISGLQAEDEADYYCSSYTSSSTLVVFGGGTKLTVLRTVAAPSVFIFPPSDEQLKSGTASVVCLLNNFYPREAKVQWKVDNALQSGNSQESVTEQDSKDSTYSLSSTLTLSKADYEKHKVYACEVTHQGLSSPVTKSFNRGEC
notes: variable domains originate from IgG15
B2: in the experiment with TNFR2 (on Kym-1 cells), the “EC50 of cell death induction, Kym-1 cells, MTT assay after 24 hours” value was about 0.056 nM and the “fold increase of bioactivity against the bivalent antibody” value is about 500 fold. For the same molecule, in the experiment with TNFR1-Fc fusion protein, the binding result is “no binding”. In experiment [1], this molecule returned an EC50 of 0.7 nM.
